Laboratory results published in a protein production outcome set (Wang et al. 2014).

Experiment: label from the status in PepcDB records

Sequence | protein production
MNLRLTASILGKLLMLFSFSFILPLIAAHVFEEPYHPFLIPAALSLLVGAVLGYGIKTESEFDSLRHKESFAIVALIWLFMSIFGSIPYIIFGISPVDAFFESMSGFTTTGASVLTPEELPKSLLLWRSLTQWIGGMGIIVLFLAIFPNVAKRSTVLFQAEYPGVSLSKLKPRIRDTALSLYKVYLLLTIAEVALLYALGLSLFDAINHTFTTLSTGGYSTHSESIAFFKDVRVEAVVAFFAFLGGANFALIYFLLSGKPVIFRNTEFRAYVCFLALASVVIAAVNLDRYSIFESLRYSIFQAVSIMTTTGFTTADFDAWSDSAKLILVVLMFIGGSSGSTGGGIKVIRIYLLIKYAVHQILRAAEPRTVRAVKFEGRAIKKEILDDIAAFFVLYILIFAVSSILVSLSGYDIVTSISATAATLGNVGPGLGLAGAAENYASFPSLTKILLAVNMWIGRLEIFTVVSLFIPTFWRERW | failed
MNDADSLQDYQRVRQQAIRSLFEIVEGSSEGTVIVDREARIVWINQRYAQRFGLADPAQAIGRPCESVIPGSLLREVVGSGKPILLDMMDSAKDPLVVMRLPIHDDAGEVIGAIGFALLDELRSLSPLVTRYLSMQRELASTRSQLQARQAKYSFSHFVGTSPVSLEVKRRARRGAASEAPVLLLGETGTGKELLAHAIHSASPRAHKAFVSVNAAAIPESLLEAEFFGTAPGAFTGAERKGRPGKLQVAQGGTLFLDEIGDMPLALQGKLLRVLQEKEFEAVGSNEVIRSDIRLVAATSIDLQQAMREGRFRADLYYRLNVLPIEIPPLRQRLDDLPALCESILDSLDHGRLHELGGDALALLARHAWPGNVRELRNVLERALLLADQRLLDAAALGAALGPLQPLPELPRAADDRPVGDFQQAREAFERDLIGRALAQSAGNVVEAAKRLGLGRSTLYKKIVALGMRLDSGTRLEIETN | failed
QIAAVDPAGMSVIRDRNQLFRVNSAGEVENTYTLKVINKTQQVQEYNLDVKGLNDVSWYGKQTIQVEPGEVLNLPMSLGADPDKLNSAITTIQFILTDKSNEFTIEVESRFIKKL | not failed
MMPPPAVPPQLPEVPAADLPRVRAPLSTYRRPQRTDFVTPTGGPFFAKQDKALNTIDLKMAHDLKLRGYRVKVAVVDEGVRSDHPLLNVEKKYGGDYMADGTRTYPDPKRQGRHGTSVALVLAGQDTDTYRGGVAPNADLYSANIGTRAGHVSDEAAFHAWNDLLGHGIKIFNNSFATEGPEGEQRVKEDRNEYHSAANKQNTYIGRLDRLVRDGALLIFAAGNGRPSGRAYSEVGSVGRTPRVEPHLQRGLIVVTAVDENGRLETWANRCGQAQQWCLAAPSTAYLPGLDKDNPDSIHVEQGTSLSAPLVTGAAVLVQDRFRWMDNDNLRTTLLTTAQDKGPYGVDPQYGWGVLDVGRAVQGPAQFAFGDFVARVTDTSTFGNDISGAGGLVVDGPGALVLAGSNTYAGRTTIKRGTLDVFGSVTSAVTVEPGGTLTGIGTVGTVTNQGTVVNKEAGLHVKGDYSQTAQGLLVTDIGSLLDVSGRASLAGRLHVDDIRPGYVGGDGKSVPVIKAGAVSGVFATLTRSPGLLLNARLDYRPQAVYLTMRRAERVHAAAQRGADDGRRASVLAVAERLDAAMRELDALPESQRDAAAPAAAIGRIQRVQSRKVLQDNLYSLAGATYANAAAVNTLEQNRWMDRLENHLAQAGGERVAAIAEYRHGQLRWRPDGLQGRQRGNGIMLGLAREVSAGLSLAAALTHSRTHWDESSGAPARDNAAMTTPGVLLGARRAWEDGWFVQGALGYSRYRNQATRHISLGDAGHTVGATARGHVWQADAGLGRQWTLAPGHTLAPRAGLQLTHLRQQGFSESGAQGLGLRAHALTRTVPTLWAQLQSRHAFMLGATPMTAQLQLGVWHDLRARRYAASGGFAGLAQDQGASGYWPVPRTRVQGALGLRAEFAPGLVLGLGYTGQLATHWVDHQLSASLTYRY | failed
MQKIPGYENTNSEVPDKKYWLYGLMIVFFALAFRLFELGERVLHHDESIHASFTLKLLEHGEYSYDPAYHGPFLFHSTAAVFHFLGITDTTSRLVPVLFGVATILLLFLLKKELGKNGVLWSMFLLAFSPSMVYFSRFFRNDMIIIFCTLAAVTGAFRYLDSIHSLKRYPYLVLAASSLAVAVSSKENAYIILAVFGAYAGLGFLYWICSDWKKENMGLKETLRSKTSALLPYLPEIILSGALSVFIIMFFYSSAFRYDVSLFSIVERAFNHWMEMHSIERIGGPFYYYIPILLRYEIPVVLFGAAGFFYFLFNRVRNKGQNYSFFLFLCYWALTSLLLYSYIQEKVPWLVVHIVLPFGLLAGAFLGEVFSKKNKDGQPKKPDYPGKIRALLTVILVLTLLVFISQCISVNYYRSMEDEELITYTQASPDIRILMEKIEGFNESPDTLRIYVIDQYQLYWPLPWYLRDYERAAYSSKPPSSSKYDAIIVPISCDMYRELSEEEYSSYNFTLRPGRDFTLYYNNKLEQQ | failed
METAKDGEQSPSEASPPTQAGPETISEPVPLEEEGQPLYHEETIDLGGDDFASEETEPTSEGSHNFGDKLNEHMMESVLISDSPNNSEGDVGDLGCLQDVGEPPRGATDHRLPDSTDKEVVDTLSNGSETDGDDTPRDISDMTPDSRASLKEDSTQEDVPAMPALENAGTEEVGPKDSLVPREEQTSEVSSSQSSSKDEPLPVCTIFSQATSTSSQPHLFLQDGFESQMVKSPSFSSTSETSAKTPPPMVQPSPSLSTFFGDTMSSNSLASDFFDSFTTSTFISVSNPNAGSPVPEKLASLTAPVGEKSPDSTSPSYSTRMDRSESGVSRAALDVPESPKPFSQIQAVFAGSDDPFATALSMSEMDRRNDAWLPSQATREVLMSVATQQYGTVFIDKENLTMPGLKFDNIQGDAVKDLMLRFLGEKAAAKRQVLNASSVEQSFVGLKQLISCRNWRAAVDLCGRLLTAHGQGYGKSGLPTNHTTDSLQLWFVRLALLVKLGLFQNAEMEFEPFGNLDQPDLYYEYYPHVYPGRRGSMVPFSMRILHAELQQYLGNPQESLDRLHRVKTVCSKILANLEQGLAEDGGLSSVTQESRQASVQLWRSRLGRVLYSMANCLLLMKDYVLAVNAYLTVIKYYPEQEPQLLSGIGRILLQIGDIKTAEKYFQDVEKVTQKLDGLQGKIMVLMNRAFLYLGQNNFAEAHKFFTEILRMDPTNAVANNNAAVCLLYLGKLKDSLRQLEAMVQQDPRHYLHESVLFNLTTMYELESSRSMQKKQSLLEAVASKEGDSFNTQCLKLA | failed
MKFYTILSILFISFMLSACAVLQKSSPLQENKDFYILDTHTQKKISFEDMILELLKADVILLGEKHDEVKHKISQVMIFNALEGNLSSQNINFDVALEMLASTEQNHLDKAFKNKKTIKANELTNALNWDKVWKWKDYEQFVNVVFYSKSKILGANLSRSEITSIYNGAQPLKGYVSTTNEVKKQLFDIISLSHKLNPEENKELLDKLVEIQQFKDRRMADVLVHHVNKVLLLAGSYHTSKKIGIPLHIQDFKSSKKIVVVNLSYGEIDLKDSDYVLIYKGEELEHHHHHH | failed
MGCDFAIAKDFLLFFLTKPISMKLSVIIPIYNEIQTIEKILKKITTVMPEIPKEIVMVDDGSKDGTREWLVDTFGDPEQHPVLANVNLAGKFQCFPLDQSAETNGDRQGNSFVMPKEWEVKVIFHRQNQGKGGALHTAFAAATGDVLIIQDADLEYDPEDWGPMWKLIDGGWADVVYGSRFYGNPHRVLYFHHYLGNKLITSLIDLVCNINLTDIEVCYKMFRREVLEDLRLTCNDFGFEVEFTMKVTRSPKRWRIYEVGVAYYGRTFAEGKKINWRDGVKALGYIAKFWLTNALEHHHHHH | failed
HVSDLDWLMSGLVQRVPHTTSAVLLSCDGLVKSVHGLDPDSADHMAALASGLYSLGRSAGIRFGDGGDVRQVVVELDSTLLFVSTAGSGTCLAVLAGREADAAVLGYEMAMLVKSVRPYLMTAPRQ | not failed
CFVTRIRLLDSNVIECTLSVESTGQECLEAVAQRLELRETHYFGLWFLSKSQQARWVELEKPLKKHLDKFANEPLLFFGVM | failed
MNSLINIFNQYSELAIFISLFISVIIALLGIVPSVFVTGANIVFFGPINGFLISLLGEVIGGWISFKVYRKGINKFAGNIEGKYELIDKIVKSEGRNVGILIFEGRLIPFIPSGLVTLAAAMSKVNSFTFIISTFLGKIPSILLEVLASYGVIMASQKNLKLVIGVLSLILFLLTLKKLKDKTNKK | failed
MKINLLQYIAGFLGFIALFYGIFSLIREYHFLEIKSLEVFVLIFFGFFAITYAFTDRIMIEKPFALTFAVILFYLSLITPLPLTNKILLITGGIIETQLASRKGVKGTVYIILGILTLIYFVYAHFINLSSILSLIGIGLSSLIIVLGNRDRKVKGISYLTYPVGIPLVVYGINGFFPLSINPIFIIVGLAIVLLNLLPSKGIPSSDYDLKLDQKLCNDIQRSECKDVIQIYKKYMVYIPQHCLDKVVLCTINQNDMQNFNLVINNSLARSVAERYVDKMSPEMLYSLALLSSRKKELLELACKKGYKKACEQTKPILDMKNWDPKVWVGKEIYNYNIVDIIGVGGTSYILKGEKDGNFYALKIPLINYLNNVMDLVGESSKLIELSNKSPYIVRLYAIYADQLDVKEILGGNPEIYYNKPPMLVIELMKGGSINDVINVKELVKSEYWKKIVFITTARIAEALETIHSEGYVHCDVKPQNVLFNEKLPPNARLAYDNLKNGKIIVKLADLGSAVKAGEKPFSYTPAYVSFDLVKSTAFGGVSPMADIYALGATVYKLLTGVTLNTNVMIEAMDKFEANKDIRYLDNSLYSTRNLDLLRKYVDKNTYLFISKMVDPDPNKRPTSKEIKEFFYFRV | failed
MSLQSQPIALELIVRNHPGVMTHICGLFARRAFNVDGILCLPMKNSDKSRIWLLVQKDERLMQMVSQVEKLEDVKEVRFSDDLRVFEQMESYLN | not failed
MRWGSWLALAGLNAFLSIASGAFAAHALSALGDAHGVGLMEKSARYQMYGAFALVVCAWLAERGVGGRLVAVAGWLHLAGVVLFCGALSAIALLGWPAGPVAPLGGSAMLLGWGVLAWIGLRARRGA | failed
MGSPNSLSRRGFCLCCVGGATFAASAGWLTPREAYAEARGLVSLIKDSAAISPITASRLRNNISVLEGSGGNIAVLTGSDGKLLVDAGIRVSRAQLTNALAGLGTDPVTHLVNTHWHFDHADGNEWLHSAGAKIIAHENTRKHLLGVQRVEDWDYNFLPLGPGGIPSEVFAGSHKLGLNGASISLKYFGPAHTDSDVSVTFVEANIVHVGDTFWNGIYPFIDYSTGGSIDGMIAACDANLAATDKDTIIIPGHGKPVSNKAELQAFRDMLVAIRDNVARLKAQGRTWDETVAAKPTAAFDAQWGQFVIDPGFFTRLVYQGV | failed
MLLQKSKVLVLNASYEPLSICDARNAVLLLFCGKAMMVASHPEHRIRTVTENFPLPSIVRLMVYVRIDYRGAVLNRKNLFRRDGFRCQYCGCKDGSLTVDHVMPKSRGGEDTWENLITACKSCNTKKGNRTPSEAGMAMLNKPCRPSNITLMRQHYRSISDEWKPYLFMS | failed
SSPFPIPNTQYPISNPQFNRWLVPMAGGPNARIAIKLLPALVTLSDDPQIRLTRVFKPWEFRPDMTVLEQAIRQLMRRRQLSSTVIAAPVQADSVVEGVIKLVETEGYDVVVLGASREGLLQQAIQGNIPEAIASGVDSTVILVR | failed
MKGKILDYSIQTSTGIIRAENQQRYSFSGSAWKEQQAPMRGMHVDFEIDAQDQVIDIFIDASDLEPAIQPSPTAVISDTVSKETHADNLSTSSDPLSSASLSHTHSQYSSSTDDQHQNLLANESKYSMMDWVMKCLRNYINFTGRARRKEYWFFQLWYAILSFVMLVLGDAFHWGDNLFLIATLLVALPAIAVSAHRLHDINRSGWLVLLNLVTIVGVLIVTFFFMIKEGDQTTNSYGPASK | failed
MEFYEVIKKRKSIKKFEQTAIDRDKLLKIIDMAMRAPSWKNKTPYKFIVVESDKLKLDIANAIENKTSAASEAVLNSPMTIVAVANPEESGDVSGKEIYLIDTAIAMEHIVLGATDEGYGTCWIAAFNENKIKEALKIPDNLRVVALTPLGVPKDSAEDEPHHPKKDMDEYLYIDKWGTSFMESNVKILEKN | not failed
